Values quoted from earlier work, collected in patent publication US5362858A, “Polyethylene glycol-hirudin conjugates, process for preparing them and their use for the treatment of thromboses” (Transgene S.A., priority 1992, dated 1994).

Details: removal from the bloodstream

For hirudin, which half-life period is on record?
Its half-life period is “about 1 h”.
